Measurements reported in US20230250154A1 (CYTONICS, published 2023).
Substitutions are numbered along the chain they refer to. Numbers in names are those of the source. Each block holds one binder with its values, some of them ahead of it.

Columns and labels:
Experiment in all cases: cell-based or functional assay
[1] = biological target: T1, ADAMTS4 (human, UniProt O75173 213-685, limits assumed)
T1 sequence (looked up): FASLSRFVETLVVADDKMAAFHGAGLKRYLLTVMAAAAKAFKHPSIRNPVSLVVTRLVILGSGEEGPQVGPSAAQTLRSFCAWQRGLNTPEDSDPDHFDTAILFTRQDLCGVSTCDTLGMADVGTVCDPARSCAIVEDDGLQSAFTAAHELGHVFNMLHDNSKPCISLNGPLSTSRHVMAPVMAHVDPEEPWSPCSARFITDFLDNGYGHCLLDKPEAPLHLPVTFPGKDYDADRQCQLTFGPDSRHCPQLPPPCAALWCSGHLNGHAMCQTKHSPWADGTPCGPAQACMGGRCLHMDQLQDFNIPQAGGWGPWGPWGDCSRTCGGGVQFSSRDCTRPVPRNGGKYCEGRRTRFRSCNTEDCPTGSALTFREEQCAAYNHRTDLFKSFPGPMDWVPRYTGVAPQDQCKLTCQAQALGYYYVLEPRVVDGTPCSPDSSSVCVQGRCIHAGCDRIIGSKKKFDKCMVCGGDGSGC

[2] = biological target: T2, ADAMTS5 (human, UniProt Q9UNA0 262-622, limits assumed)
T2 sequence (looked up): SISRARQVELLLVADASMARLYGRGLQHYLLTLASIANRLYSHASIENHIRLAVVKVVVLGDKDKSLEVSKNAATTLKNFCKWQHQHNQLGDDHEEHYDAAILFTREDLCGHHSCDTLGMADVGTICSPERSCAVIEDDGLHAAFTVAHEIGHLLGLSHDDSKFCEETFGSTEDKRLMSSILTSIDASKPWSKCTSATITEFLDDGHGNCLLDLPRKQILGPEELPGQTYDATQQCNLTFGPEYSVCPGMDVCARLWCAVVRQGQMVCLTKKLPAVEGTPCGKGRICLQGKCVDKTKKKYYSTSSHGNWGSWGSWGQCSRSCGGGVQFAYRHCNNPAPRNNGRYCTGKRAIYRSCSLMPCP

[3] = biological target: MMP13 (human, UniProt P45452 104-471, limits assumed)

Protease Inhibition (% of WT) [1]: 124 % of WT
Protease Inhibition (% of WT) [2]: 82 % of WT
Protease Inhibition (% of WT) [3]: 148 % of WT
B1: Variant A2M, bait region SEQ ID NO 98 (other)
chain: SVSGKPQYMVLVPSLLHTETTEKGCVLLSYLNETVTVSASLESVRGNRSLFTDLEAENDVLHCVAFAVPKSSSNEEVMFLTVQVKGPTQEFKKRTTVMVKNEDSLVFVQTDKSIYKPGQTVKFRVVSMDENFHPLNELIPLVYIQDPKGNRIAQWQSFQLEGGLKQFSFPLSSEPFQGSYKVVVQKKSGGRTEHPFTVEEFVLPKFEVQVTVPKIITILEEEMNVSVCGLYTYGKPVPGHVTVSICRKYSDASDCHGEDSQAFCEKFSGQLNSHGCFYQQVKTKVFQLKRKEYEMKLHTEAQIQEEGTVVELTGRQSSEITRTITKLSFVKVDSHFRQGIPFFGQVRLVDGKGVPIPNKVIFIRGNEANYYSNATTDEHGLVQFSINTTNVMGTSLTVRVNYKDRSPCYGYQWVSEEHEEAHHTAYLVFSPSKSFVHLEPMSHELPCGHTQTVQAHYILNGGTLLGLKKLSFYYLIMAKGGIVRTGTHGLLVKQEDMKGHFSISIPVKSDIAPVARLLIYAVLPTGDVIGDSAKYDVENCLANKVDLSFSPSQSLPASHAHLRVTAAPQSVCALRAVDQSVLLMKPDAELSASSVYNLLPEKDLTGFPGPLNDQDDEDCINRHNVYINGITYTPVSSTNEKDMYSFLEDMGLKAFTNSKIRKPKMCPQLEQYEMHGPEGLRVGGARGLEGFYESDVMGRGHARLVHVEEPHTKLRKYFPETWIWDLVVVNSAGVAEVGVTVPDTITEWKAGAFCLSEDAGLGISSTASLRAFQPFFVELTMPYSVIRGEAFTLKATVLNYLPKCIRVSVQLEASPAFLAVPVEKEQAPHCICANGRQTVSWAVTPKSLGNVNFTVSAEALESQELCGTEVPSVPEHGRKDTVIKPLLVEPEGLEKETTFNSLLCPSGGEVSEELSLKLPPNVVEESARASVSVLGDILGSAMQNTQNLLQMPYGCGEQNMVLFAPNIYVLDYLNETQQLTPEIKSKAIGYLNTGYQRQLNYKHYDGSYSTFGERYGRNQGNTWLTAFVLKTFAQARAYIFIDEAHITQALIWLSQRQKDNGCFRSSGSLLNNAIKGGVEDEVTLSAYITIALLEIPLTVTHPVVRNALFCLESAWKTAQEGDHGSHVYTKALLAYAFALAGNQDKRKEVLKSLNEEAVKKDNSVHWERPQKPKAPVGHFYEPQAPSAEVEMTSYVLLAYLTAQPAPTSEDLTSATNIVKWITKQQNAQGGFSSTQDTVVALHALSKYGAATFTRTGKAAQVTIQSSGTFSSKFQVDNNNRLLLQQVSLPELPGEYSMKVTGEGCVYLQTSLKYNILPEKEEFPFALGVQTLPQTCDEPKAHTSFQISLSVSYTGSRSASNMAIVDVKMVSGFIPLKPTVKMLERSNHVSRTEVSSNHVLIYLDKVSNQTLSLFFTVLQDVPVRDLKPAIVKVYDYYETDEFAIAEYNAPCSKDLGNADYKDDDDKGASHHHHHH

Protease Inhibition (% of WT) [1]: 131 % of WT
Protease Inhibition (% of WT) [2]: 128 % of WT
Protease Inhibition (% of WT) [3]: 116 % of WT
B2: Variant A2M, bait region SEQ ID NO 97 (other)
chain: SVSGKPQYMVLVPSLLHTETTEKGCVLLSYLNETVTVSASLESVRGNRSLFTDLEAENDVLHCVAFAVPKSSSNEEVMFLTVQVKGPTQEFKKRTTVMVKNEDSLVFVQTDKSIYKPGQTVKFRVVSMDENFHPLNELIPLVYIQDPKGNRIAQWQSFQLEGGLKQFSFPLSSEPFQGSYKVVVQKKSGGRTEHPFTVEEFVLPKFEVQVTVPKIITILEEEMNVSVCGLYTYGKPVPGHVTVSICRKYSDASDCHGEDSQAFCEKFSGQLNSHGCFYQQVKTKVFQLKRKEYEMKLHTEAQIQEEGTVVELTGRQSSEITRTITKLSFVKVDSHFRQGIPFFGQVRLVDGKGVPIPNKVIFIRGNEANYYSNATTDEHGLVQFSINTTNVMGTSLTVRVNYKDRSPCYGYQWVSEEHEEAHHTAYLVFSPSKSFVHLEPMSHELPCGHTQTVQAHYILNGGTLLGLKKLSFYYLIMAKGGIVRTGTHGLLVKQEDMKGHFSISIPVKSDIAPVARLLIYAVLPTGDVIGDSAKYDVENCLANKVDLSFSPSQSLPASHAHLRVTAAPQSVCALRAVDQSVLLMKPDAELSASSVYNLLPEKDLTGFPGPLNDQDDEDCINRHNVYINGITYTPVSSTNEKDMYSFLEDMGLKAFTNSKIRKPKMCPQLEQYEMHGPEGLRVGGEEGVEEGFYESDVMGRGHARLVHVEEPHTKLLRKYFPETWIWDLVVVNSAGVAEVGVTVPDTITEWKAGAFCLSEDAGLGISSTASLRAFQPFFVELTMPYSVIRGEAFTLKATVLNYLPKCIRVSVQLEASPAFLAVPVEKEQAPHCICANGRQTVSWAVTPKSLGNVNFTVSAEALESQELCGTEVPSVPEHGRKDTVIKPLLVEPEGLEKETTFNSLLCPSGGEVSEELSLKLPPNVVEESARASVSVLGDILGSAMQNTQNLLQMPYGCGEQNMVLFAPNIYVLDYLNETQQLTPEIKSKAIGYLNTGYQRQLNYKHYDGSYSTFGERYGRNQGNTWLTAFVLKTFAQARAYIFIDEAHITQALIWLSQRQKDNGCFRSSGSLLNNAIKGGVEDEVTLSAYITIALLEIPLTVTHPVVRNALFCLESAWKTAQEGDHGSHVYTKALLAYAFALAGNQDKRKEVLKSLNEEAVKKDNSVHWERPQKPKAPVGHFYEPQAPSAEVEMTSYVLLAYLTAQPAPTSEDLTSATNIVKWITKQQNAQGGFSSTQDTVVALHALSKYGAATFTRTGKAAQVTIQSSGTFSSKFQVDNNNRLLLQQVSLPELPGEYSMKVTGEGCVYLQTSLKYNILPEKEEFPFALGVQTLPQTCDEPKAHTSFQISLSVSYTGSRSASNMAIVDVKMVSGFIPLKPTVKMLERSNHVSRTEVSSNHVLIYLDKVSNQTLSLFFTVLQDVPVRDLKPAIVKVYDYYETDEFAIAEYNAPCSKDLGNADYKDDDDKGASHHHHHH

Protease Inhibition (% of WT) [1]: 63 % of WT
Protease Inhibition (% of WT) [2]: 87 % of WT
Protease Inhibition (% of WT) [3]: 64 % of WT
B3: Variant A2M, bait region SEQ ID NO 99 (other)
chain: B2 chain with E685P, E686P, V688L, E689A, E690P
